Patent US20140087995A1 (published 2014)
Numbered stars: 1 amine (or outer) side, 2 acyl side, 3 side chain; on linkers, the order of the positions; unused ones are H or OH. Bridge positions count the residues as written; N and C are the ends. * marks the point of attachment. C20 diacid = O=C(O)CCCCCCCCCCCCCCCCCCC(=O)*; γGlu = O=C(O)[C@H](CCC(=O)[*:2])N[*:1]

T1: human calcitonin receptor (human, UniProt P30988 25-474)
T1 sequence (looked up): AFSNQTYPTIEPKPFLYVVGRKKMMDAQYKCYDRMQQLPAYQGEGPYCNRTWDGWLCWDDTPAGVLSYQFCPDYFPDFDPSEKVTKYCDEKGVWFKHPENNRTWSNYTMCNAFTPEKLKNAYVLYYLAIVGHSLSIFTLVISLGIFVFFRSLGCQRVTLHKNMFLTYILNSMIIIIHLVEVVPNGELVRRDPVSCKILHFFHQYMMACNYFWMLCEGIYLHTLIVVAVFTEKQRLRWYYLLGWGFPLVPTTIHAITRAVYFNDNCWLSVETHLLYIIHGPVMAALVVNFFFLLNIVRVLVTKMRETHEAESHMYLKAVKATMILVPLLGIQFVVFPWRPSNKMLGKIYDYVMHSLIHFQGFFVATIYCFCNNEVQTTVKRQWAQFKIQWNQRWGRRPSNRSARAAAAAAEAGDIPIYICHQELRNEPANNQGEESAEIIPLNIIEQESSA

B1: N^α1-[(4S)-4-carboxy-4-(19-carboxynonadecanoylamino)butanoyl]-[Arg17,Pro21,Pro27,Pro34,Glu35]-h-amylin (peptide)
peptide: {C20 diacid-γGlu}-KCNTATCATQRLANFLRHSSPNFGAIPSSTNVGPETY-NH2
modifications: disulfide 2-7
SMILES: CC[C@H](C)[C@H](NC(=O)[C@H](C)NC(=O)CNC(=O)[C@H](Cc1ccccc1)NC(=O)[C@H](CC(N)=O)NC(=O)[C@@H]1CCCN1C(=O)[C@H](CO)NC(=O)[C@H](CO)NC(=O)[C@H](Cc1c[nH]cn1)NC(=O)[C@H](CCCNC(=N)N)NC(=O)[C@H](CC(C)C)NC(=O)[C@H](Cc1ccccc1)NC(=O)[C@H](CC(N)=O)NC(=O)[C@H](C)NC(=O)[C@H](CC(C)C)NC(=O)[C@H](CCCNC(=N)N)NC(=O)[C@H](CCC(N)=O)NC(=O)[C@@H](NC(=O)[C@H](C)NC(=O)[C@@H]1CSSC[C@H](NC(=O)[C@H](CCCCN)NC(=O)CC[C@H](NC(=O)CCCCCCCCCCCCCCCCCCC(=O)O)C(=O)O)C(=O)N[C@@H](CC(N)=O)C(=O)N[C@@H]([C@@H](C)O)C(=O)N[C@@H](C)C(=O)N[C@@H]([C@@H](C)O)C(=O)N1)[C@@H](C)O)C(=O)N1CCC[C@H]1C(=O)N[C@@H](CO)C(=O)N[C@@H](CO)C(=O)N[C@H](C(=O)N[C@@H](CC(N)=O)C(=O)N[C@H](C(=O)NCC(=O)N1CCC[C@H]1C(=O)N[C@@H](CCC(=O)O)C(=O)N[C@H](C(=O)N[C@@H](Cc1ccc(O)cc1)C(N)=O)[C@@H](C)O)C(C)C)[C@@H](C)O
notes: h-amylin derivative; disulfide bridge and C-terminal amide as told for human amylin; also called compound 29
B2: N^α1-[(4S)-4-carboxy-4-(19-carboxynonadecanoylamino)butanoyl]-[Glu14,Arg17,Pro21,Pro27,His34]-h-amylin (peptide)
peptide: {C20 diacid-γGlu}-KCNTATCATQRLAEFLRHSSPNFGAIPSSTNVGHNTY-NH2
modifications: disulfide 2-7
SMILES: CC[C@H](C)[C@H](NC(=O)[C@H](C)NC(=O)CNC(=O)[C@H](Cc1ccccc1)NC(=O)[C@H](CC(N)=O)NC(=O)[C@@H]1CCCN1C(=O)[C@H](CO)NC(=O)[C@H](CO)NC(=O)[C@H](Cc1c[nH]cn1)NC(=O)[C@H](CCCNC(=N)N)NC(=O)[C@H](CC(C)C)NC(=O)[C@H](Cc1ccccc1)NC(=O)[C@H](CCC(=O)O)NC(=O)[C@H](C)NC(=O)[C@H](CC(C)C)NC(=O)[C@H](CCCNC(=N)N)NC(=O)[C@H](CCC(N)=O)NC(=O)[C@@H](NC(=O)[C@H](C)NC(=O)[C@@H]1CSSC[C@H](NC(=O)[C@H](CCCCN)NC(=O)CC[C@H](NC(=O)CCCCCCCCCCCCCCCCCCC(=O)O)C(=O)O)C(=O)N[C@@H](CC(N)=O)C(=O)N[C@@H]([C@@H](C)O)C(=O)N[C@@H](C)C(=O)N[C@@H]([C@@H](C)O)C(=O)N1)[C@@H](C)O)C(=O)N1CCC[C@H]1C(=O)N[C@@H](CO)C(=O)N[C@@H](CO)C(=O)N[C@H](C(=O)N[C@@H](CC(N)=O)C(=O)N[C@H](C(=O)NCC(=O)N[C@@H](Cc1c[nH]cn1)C(=O)N[C@@H](CC(N)=O)C(=O)N[C@H](C(=O)N[C@@H](Cc1ccc(O)cc1)C(N)=O)[C@@H](C)O)C(C)C)[C@@H](C)O
notes: h-amylin derivative; disulfide bridge and C-terminal amide as told for human amylin; also called compound 17
B3: N^α1-[(4S)-4-carboxy-4-(19-carboxynonadecanoylamino)butanoyl]-[Glu14,Arg17,Pro21,Pro27,Arg35]-h-amylin (peptide)
peptide: {C20 diacid-γGlu}-KCNTATCATQRLAEFLRHSSPNFGAIPSSTNVGSRTY-NH2
modifications: disulfide 2-7
SMILES: CC[C@H](C)[C@H](NC(=O)[C@H](C)NC(=O)CNC(=O)[C@H](Cc1ccccc1)NC(=O)[C@H](CC(N)=O)NC(=O)[C@@H]1CCCN1C(=O)[C@H](CO)NC(=O)[C@H](CO)NC(=O)[C@H](Cc1c[nH]cn1)NC(=O)[C@H](CCCNC(=N)N)NC(=O)[C@H](CC(C)C)NC(=O)[C@H](Cc1ccccc1)NC(=O)[C@H](CCC(=O)O)NC(=O)[C@H](C)NC(=O)[C@H](CC(C)C)NC(=O)[C@H](CCCNC(=N)N)NC(=O)[C@H](CCC(N)=O)NC(=O)[C@@H](NC(=O)[C@H](C)NC(=O)[C@@H]1CSSC[C@H](NC(=O)[C@H](CCCCN)NC(=O)CC[C@H](NC(=O)CCCCCCCCCCCCCCCCCCC(=O)O)C(=O)O)C(=O)N[C@@H](CC(N)=O)C(=O)N[C@@H]([C@@H](C)O)C(=O)N[C@@H](C)C(=O)N[C@@H]([C@@H](C)O)C(=O)N1)[C@@H](C)O)C(=O)N1CCC[C@H]1C(=O)N[C@@H](CO)C(=O)N[C@@H](CO)C(=O)N[C@H](C(=O)N[C@@H](CC(N)=O)C(=O)N[C@H](C(=O)NCC(=O)N[C@@H](CO)C(=O)N[C@@H](CCCNC(=N)N)C(=O)N[C@H](C(=O)N[C@@H](Cc1ccc(O)cc1)C(N)=O)[C@@H](C)O)C(C)C)[C@@H](C)O
notes: h-amylin derivative; disulfide bridge and C-terminal amide as told for human amylin; also called compound 16
B4: N^α1-[(4S)-4-carboxy-4-(19-carboxynonadecanoylamino)butanoyl]-[Glu14,Arg17,Pro21,Pro27,Pro31]-h-amylin (peptide)
peptide: {C20 diacid-γGlu}-KCNTATCATQRLAEFLRHSSPNFGAIPSSTPVGSNTY-NH2
modifications: disulfide 2-7
SMILES: CC[C@H](C)[C@H](NC(=O)[C@H](C)NC(=O)CNC(=O)[C@H](Cc1ccccc1)NC(=O)[C@H](CC(N)=O)NC(=O)[C@@H]1CCCN1C(=O)[C@H](CO)NC(=O)[C@H](CO)NC(=O)[C@H](Cc1c[nH]cn1)NC(=O)[C@H](CCCNC(=N)N)NC(=O)[C@H](CC(C)C)NC(=O)[C@H](Cc1ccccc1)NC(=O)[C@H](CCC(=O)O)NC(=O)[C@H](C)NC(=O)[C@H](CC(C)C)NC(=O)[C@H](CCCNC(=N)N)NC(=O)[C@H](CCC(N)=O)NC(=O)[C@@H](NC(=O)[C@H](C)NC(=O)[C@@H]1CSSC[C@H](NC(=O)[C@H](CCCCN)NC(=O)CC[C@H](NC(=O)CCCCCCCCCCCCCCCCCCC(=O)O)C(=O)O)C(=O)N[C@@H](CC(N)=O)C(=O)N[C@@H]([C@@H](C)O)C(=O)N[C@@H](C)C(=O)N[C@@H]([C@@H](C)O)C(=O)N1)[C@@H](C)O)C(=O)N1CCC[C@H]1C(=O)N[C@@H](CO)C(=O)N[C@@H](CO)C(=O)N[C@H](C(=O)N1CCC[C@H]1C(=O)N[C@H](C(=O)NCC(=O)N[C@@H](CO)C(=O)N[C@@H](CC(N)=O)C(=O)N[C@H](C(=O)N[C@@H](Cc1ccc(O)cc1)C(N)=O)[C@@H](C)O)C(C)C)[C@@H](C)O
notes: h-amylin derivative; disulfide bridge and C-terminal amide as told for human amylin; also called compound 31
B5: N^α1-[(4S)-4-carboxy-4-(19-carboxynonadecanoylamino)butanoyl]-[Glu14,Arg17,Pro21,Pro27,Pro34]-h-amylin (peptide)
peptide: {C20 diacid-γGlu}-KCNTATCATQRLAEFLRHSSPNFGAIPSSTNVGPNTY-NH2
modifications: disulfide 2-7
SMILES: CC[C@H](C)[C@H](NC(=O)[C@H](C)NC(=O)CNC(=O)[C@H](Cc1ccccc1)NC(=O)[C@H](CC(N)=O)NC(=O)[C@@H]1CCCN1C(=O)[C@H](CO)NC(=O)[C@H](CO)NC(=O)[C@H](Cc1c[nH]cn1)NC(=O)[C@H](CCCNC(=N)N)NC(=O)[C@H](CC(C)C)NC(=O)[C@H](Cc1ccccc1)NC(=O)[C@H](CCC(=O)O)NC(=O)[C@H](C)NC(=O)[C@H](CC(C)C)NC(=O)[C@H](CCCNC(=N)N)NC(=O)[C@H](CCC(N)=O)NC(=O)[C@@H](NC(=O)[C@H](C)NC(=O)[C@@H]1CSSC[C@H](NC(=O)[C@H](CCCCN)NC(=O)CC[C@H](NC(=O)CCCCCCCCCCCCCCCCCCC(=O)O)C(=O)O)C(=O)N[C@@H](CC(N)=O)C(=O)N[C@@H]([C@@H](C)O)C(=O)N[C@@H](C)C(=O)N[C@@H]([C@@H](C)O)C(=O)N1)[C@@H](C)O)C(=O)N1CCC[C@H]1C(=O)N[C@@H](CO)C(=O)N[C@@H](CO)C(=O)N[C@H](C(=O)N[C@@H](CC(N)=O)C(=O)N[C@H](C(=O)NCC(=O)N1CCC[C@H]1C(=O)N[C@@H](CC(N)=O)C(=O)N[C@H](C(=O)N[C@@H](Cc1ccc(O)cc1)C(N)=O)[C@@H](C)O)C(C)C)[C@@H](C)O
notes: h-amylin derivative; disulfide bridge and C-terminal amide as told for human amylin; also called compound 32

molecular target: T1, human calcitonin receptor; experiment: cell-based or functional assay

Row | hCTR funct. EC50 [nM] | Binder
1 | 0.857 | B1
2 | 2.35 | B2
3 | 2.21 | B3
4 | 0.717 | B4
5 | 0.327 | B5
